Laboratory results from publication PMC11214633.

What was measured:
[1] = target: prefusion-stabilized SARS-CoV-1 S2 subunit trimer (SARS-CoV-1); experiment: negative-stain EM
[2] = target: prefusion-stabilized PRD-0038 S2 subunit trimer (PRD-0038 sarbecovirus); experiment: negative-stain EM

Substance | stoichiometry N [1] | stoichiometry N [2]
prefusion-stabilized SARS-CoV-1 S2 subunit trimer (domain or fragment) | 3 | –
prefusion-stabilized PRD-0038 S2 subunit trimer (domain or fragment) | – | 3
